The results in this text go back to article PMC6921046, “Functional Characterization and Structural Analysis of NADH Oxidase Mutants from Thermus thermophilus HB27: Role of Residues 166, 174, and 194 in the Catalytic Properties and Thermostability” (Microorganisms, 2019).

Assay in all cases: purified protein
Substrate in series [1]: Cc1cc2nc3c(=O)[nH]c(=O)nc-3n(C[C@H](O)[C@H](O)[C@H](O)CO)c2cc1C
The conditions noted are these: 10 µM NADH, pH 7, 25 °C, exogenous flavin, varied: cofactor.

Substrate in series [2]: Cc1cc2nc3c(=O)[nH]c(=O)nc-3n(C[C@H](O)[C@H](O)[C@H](O)COP(=O)(O)O)c2cc1C
The series is classed as biochemical, Thermus thermophilus. The conditions noted are these: 10 µM NADH, pH 7, 25 °C, exogenous flavin, varied: cofactor.

Substrate in series [3]: Cc1cc2nc3c(=O)[nH]c(=O)nc-3n(C[C@H](O)[C@H](O)[C@H](O)COP(=O)(O)OP(=O)(O)OC[C@H]3O[C@@H](n4cnc5c(N)ncnc54)[C@H](O)[C@@H]3O)c2cc1C
The format is biochemical, Thermus thermophilus. The conditions noted are these: 10 µM NADH, pH 7, 25 °C, exogenous flavin, varied: cofactor.

Substrate in series [4]: NC(=O)C1=CN([C@@H]2O[C@H](COP(=O)(O)OP(=O)(O)OC[C@H]3O[C@@H](n4cnc5c(N)ncnc54)[C@H](O)[C@@H]3O)[C@@H](O)[C@H]2O)C=CC1
The format is biochemical, Thermus thermophilus. Particulars: 50 µM FAD, pH 7, 25 °C.

The mark [5] stands for this setting: authors' cloned wild type, apparent.
The mark [6] stands for this setting: authors' cloned wild type K166/H174/Y194, apparent.

B1: Tt27-NOX (Thermus thermophilus HB27; H194Y) (protein)
chain: MEATLPVLDAKTAALKRRSIRRYRKDPVPEGLLREILEAALRAPSAWNLQPWRIVVVRDPATKRALREAAFGQAHVEEAPVVLVLYADLEDALAHLDEVIHPGVQGERREAQKQAIQRAFAAMGQEARKAWASGQSYILLGYLLLLLEAYGLGSVPMLGFDPERVKAILGLPSHAAIPALVALGYPAEEGYPSYRLPLERVVLWR
notes: Recombinant, pET22b, E. coli BL21(DE3), heat shock plus PEI-Ag/DS-Ag; homodimer, ~27 kDa monomer
As a reminder, the Km is the substrate concentration at which the rate is half of its maximum. As usually defined, the kcat is the maximal rate divided by the concentration of active sites. As a reminder, the kcat/Km is the turnover number divided by the Michaelis constant. As for B1, the Km stood at 68.7 ± 3.4 µM in series [1] (K166/H174/H194, apparent); 69.7 ± 3.5 µM in series [1] (setting [5]); 45 ± 2.3 µM in series [2] (K166/H174/H194, apparent); 43 ± 2.2 µM in series [2] (setting [5]); 46 ± 2.3 µM in series [3] (K166/H174/H194, apparent); 34 ± 1.7 µM in series [3] (setting [5]). The Km amounted to 1.3 ± 0.06 µM in series [4] (K166/H174/H194, apparent) and 1.6 ± 0.1 µM in series [4] (setting [6]). Besides, the kcat in series [4] (K166/H174/H194, apparent) came to 27.2 ± 1.4 s⁻¹; in series [4] (setting [6]), 23.3 ± 1.2 s⁻¹. Further, the kcat/Km came out at 2.1e+07 ± 1.1e+06 M⁻¹ s⁻¹ in series [4] (K166/H174/H194, apparent) and 1.46e+07 ± 70000 M⁻¹ s⁻¹ in series [4] (setting [6]).

B2: R166/R174/H194 variant (Tt8-NOX variant) (Thermus thermophilus HB8; H174R) (protein)
chain: MEATLPVLDAKTAALKRRSIRRYRKDPVPEGLLREILEAALRAPSAWNLQPWRIVVVRDPATKRALREAAFGQAHVEEAPVVLVLYADLEDALAHLDEVIHPGVQGERREAQKQAIQRAFAAMGQEARKAWASGQSYILLGYLLLLLEAYGLGSVPMLGFDPERVRAILGLPSRAAIPALVALGYPAEEGYPSHRLPLERVVLWR
notes: pET22b, E. coli BL21(DE3); homodimer, ~27 kDa monomer
On to B2, for which the Michaelis-Menten constant (Km) came to 50.8 ± 2.6 µM in series [1] (R166/R174/H194, apparent); 23.6 ± 1 µM in series [2] (R166/R174/H194, apparent); 31.9 ± 1.4 µM in series [3] (R166/R174/H194, apparent); 1.8 ± 0.1 µM in series [4] (R166/R174/H194, apparent). Moreover, in series [4] (R166/R174/H194, apparent), the kcat came out at 15.1 ± 0.8 s⁻¹. In addition, the kcat/Km in series [4] (R166/R174/H194, apparent) turned out to be 8.4e+06 ± 420000 M⁻¹ s⁻¹.

B3: Tt27-NOX (Thermus thermophilus HB27; H174R/H194Y) (protein)
chain: MEATLPVLDAKTAALKRRSIRRYRKDPVPEGLLREILEAALRAPSAWNLQPWRIVVVRDPATKRALREAAFGQAHVEEAPVVLVLYADLEDALAHLDEVIHPGVQGERREAQKQAIQRAFAAMGQEARKAWASGQSYILLGYLLLLLEAYGLGSVPMLGFDPERVKAILGLPSRAAIPALVALGYPAEEGYPSYRLPLERVVLWR
notes: as for B1
Regarding B3, the Michaelis-Menten constant (Km) in series [1] (K166/R174/Y194, apparent) stood at 60 ± 3 µM; in series [2] (K166/R174/Y194, apparent), 15 ± 0.8 µM; in series [3] (K166/R174/Y194, apparent), 127 ± 6.4 µM; in series [4] (K166/R174/Y194, apparent), 1.9 ± 0.1 µM. The kcat in series [4] (K166/R174/Y194, apparent) turned out to be 8.6 ± 0.4 s⁻¹. For the same protein, in series [4] (K166/R174/Y194, apparent), the kcat/Km stood at 4.5e+06 ± 220000 M⁻¹ s⁻¹.

B4: Tt27-NOX (Thermus thermophilus HB27; H194Y/K166R) (protein)
chain: MEATLPVLDAKTAALKRRSIRRYRKDPVPEGLLREILEAALRAPSAWNLQPWRIVVVRDPATKRALREAAFGQAHVEEAPVVLVLYADLEDALAHLDEVIHPGVQGERREAQKQAIQRAFAAMGQEARKAWASGQSYILLGYLLLLLEAYGLGSVPMLGFDPERVRAILGLPSHAAIPALVALGYPAEEGYPSYRLPLERVVLWR
notes: as for B1
As for B4, the Km is reported as 27 ± 1.4 µM in series [2] (R166/H174/Y194, apparent) and 30 ± 1.5 µM in series [3] (R166/H174/Y194, apparent).
